Data set [1] concerns the molecule itself. Put plainly: AUC; sedimentation velocity, 42000 r.p.m., 20°C, 20 mM Hepes pH 7.5, 100 mM NaCl; 0.75, 1.0 and 1.5 mg/ml; c(S) and c(M) distributions (SEDFIT).
Data set [2] concerns the molecule itself. Put plainly: crystal structure; SeMet crystals grown from the SeMet-SpLsm2/3 sample; hanging drop, 15°C, 0.1 M Mes pH 6.5, 0.2 M MgCl2, 40% MPD; 2.7 Å, SAD; only SpLsm3 in the crystal.
Data set [3] deals with the molecule itself. Description: AUC; sedimentation equilibrium, 20°C, 20 mM Hepes pH 7.5, 500 mM NaCl; 15,000, 18,000, 25,000 rpm; 0.3-1.5 mg/ml; fitted to a monomer-trimer model (HETEROANALYSIS); monomer to trimer.

B1: SpLsm5/6/7 sub-complex (trimeric complex of SpLsm5, SpLsm6 and SpLsm7) (complex)
chain 1: not shown
chain 2: MDSSPNEFLNKVIGKKVLIRLSSGVDYKGILSCLDGYMNLALERTEEYVNGKKTNVYGDAFIRGNNVLYVSALDD
chain 3: MSSLQKRPGPGNSSQPTERPRKESILDLSRYQDQRIQATFTGGRQITGILKGFDQLMNLVLDDVEEQLRNPEDGKLTGAIRKLGLVVVRGTTLVLIAPMDGSEEIPNPFVQAE
modifications: SeMet-substituted in the crystal | SeMet-substituted in the crystal | SeMet-substituted in the crystal
notes: Lsm5 (Sm-like protein 5), S. pombe, full length; Lsm6 (Sm-like protein 6), S. pombe, full length; Lsm7 (Sm-like protein 7), S. pombe, full length; One copy of each subunit (printed mass of this unit 31240 Da); two such trimers form the hexameric ring; source: E. coli B834 (DE3), co-expressed (pETDuet-1 and pACYCDuet-1), purified (TALON Co2+, Superdex-200); copies: 1 + 1 + 1
Turning to B1, in data set [1], the “stoichiometry N” value is 2.

B2: SpLsm3 from the co-expressed SpLsm2/3 sample (natural protein)
chain: not shown
modifications: SeMet-substituted in the crystal
notes: Lsm3 (Sm-like protein 3), S. pombe, full length; inserted into MCS2 of pETDuet-1, no tag told; The SpLsm3 crystals grew from the SeMet-SpLsm2/3 sample; Residues 1-8 and 56-69 are disordered in the model; also called SeMet-SpLsm3; source: E. coli B834 (DE3), co-expressed with His6-SpLsm2 (pETDuet-1 MCS2), purified (TALON Co2+, Superdex-200)
B2: the “stoichiometry N” value in data set [2] came to 7.

B3: SpLsm4N (C-terminal truncated Lsm4 from S. pombe, residues 1-91) (domain or fragment, UniProt O14352 1-91, looked up)
chain: MLPLTLLNATQGRPILVELKNGETFNGHLENCDNYMNLTLREVIRTMPDGDKFFRLPECYIRGNNIKYLRIQDEVLSQVAKQQAQQRENRG
modifications: SeMet-substituted in the crystal
notes: Lsm4 (Sm-like protein 4), S. pombe, residues 1-91; printed monomer mass 12204 Da; No cleavage of the His6 tag is told for this construct; The model covers residues 12-71; also called N-terminal region of Lsm4; source: E. coli B834 (DE3), purified (TALON Co2+, Superdex-75)
In the case of B3, the “stoichiometry N” value in data set [3] is 3.

B4: SpLsm3 (Lsm3 from S. pombe, expressed alone) (natural protein)
chain: not shown
notes: Lsm3 (Sm-like protein 3), S. pombe, full length; modified pETDuet-1 MCS1 with N-terminal His6-tag followed by a PreScission site; printed monomer mass 11087 Da; source: E. coli B834 (DE3), purified (TALON Co2+, PreScission cleavage, second TALON, Superdex-200); not shown: His6, N-terminal, cleaved
B4: the “stoichiometry N” value in data set [1] was determined as 7.

B5: ScLsm3 (Lsm3 from S. cerevisiae) (natural protein)
chain: METPLDLLKLNLDERVYIKLRGARTLVGTLQAFDSHCNIVLSDAVETIYQLNNEELSESERRCEMVFIRGDTVTLISTPSEDDDGAVEI
notes: Lsm3 (Sm-like protein 3), Saccharomyces cerevisiae; the Lsm3 gene amplified from genomic DNA; printed monomer mass 10450 Da; source: E. coli B834 (DE3), purified (TALON Co2+, PreScission cleavage, second TALON, Superdex-200); not shown: His6, N-terminal, cleaved
Turning to B5, the “stoichiometry N” value in data set [1] was determined as 8.

Usually stoichiometry N stands for the number of molecules, sites or subunits per partner or assembly.

These data come from article PMC3355152, “Crystal Structures of Lsm3, Lsm4 and Lsm5/6/7 from Schizosaccharomyces pombe” (PLoS ONE, 2012).
